We go through twelve molecules from patent publication US20050261472A1, “Binding moieties for fibrin” (Dyax Corp., priority 1999, published 2005).

Bridge positions count the residues as written; N and C are the ends. Ends that are not written are not given here.

Assay [1] addresses DD(E) soluble fibrin-derived polypeptide (UniProt P02671). The assay can be described thus: Kd against DD(E) target.
For assay [2] the target is unchanged. As to the kind of experiment: synthetic peptide, Kd against DD(E) target.
The target of assay [3] is T1, dried fibrin (UniProt P02671 36-629; P02675 45-491; P02679 27-437, limits assumed).
T1 construct: Polymerised fibrin made in 96-well plates from fibrinogen and thrombin, dried at 37 C and rehydrated; also called (rehydrated) dried fibrin; fibrin target
T1 sequence (looked up) 1: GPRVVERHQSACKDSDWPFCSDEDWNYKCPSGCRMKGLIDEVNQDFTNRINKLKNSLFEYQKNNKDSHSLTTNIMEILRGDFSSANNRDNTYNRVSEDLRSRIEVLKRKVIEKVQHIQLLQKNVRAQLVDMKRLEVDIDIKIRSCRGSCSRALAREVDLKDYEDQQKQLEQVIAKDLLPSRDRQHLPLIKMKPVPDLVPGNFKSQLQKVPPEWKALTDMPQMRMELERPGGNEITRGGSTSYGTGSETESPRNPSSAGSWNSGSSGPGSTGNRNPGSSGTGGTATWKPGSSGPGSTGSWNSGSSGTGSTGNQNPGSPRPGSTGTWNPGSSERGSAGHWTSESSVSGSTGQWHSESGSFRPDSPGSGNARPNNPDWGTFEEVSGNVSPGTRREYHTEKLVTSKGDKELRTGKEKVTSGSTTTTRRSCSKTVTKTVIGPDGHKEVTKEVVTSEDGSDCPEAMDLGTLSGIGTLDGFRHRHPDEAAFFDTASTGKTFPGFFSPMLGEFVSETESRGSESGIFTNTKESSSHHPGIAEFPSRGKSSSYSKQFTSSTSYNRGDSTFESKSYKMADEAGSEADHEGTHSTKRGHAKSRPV
T1 sequence (looked up) 2: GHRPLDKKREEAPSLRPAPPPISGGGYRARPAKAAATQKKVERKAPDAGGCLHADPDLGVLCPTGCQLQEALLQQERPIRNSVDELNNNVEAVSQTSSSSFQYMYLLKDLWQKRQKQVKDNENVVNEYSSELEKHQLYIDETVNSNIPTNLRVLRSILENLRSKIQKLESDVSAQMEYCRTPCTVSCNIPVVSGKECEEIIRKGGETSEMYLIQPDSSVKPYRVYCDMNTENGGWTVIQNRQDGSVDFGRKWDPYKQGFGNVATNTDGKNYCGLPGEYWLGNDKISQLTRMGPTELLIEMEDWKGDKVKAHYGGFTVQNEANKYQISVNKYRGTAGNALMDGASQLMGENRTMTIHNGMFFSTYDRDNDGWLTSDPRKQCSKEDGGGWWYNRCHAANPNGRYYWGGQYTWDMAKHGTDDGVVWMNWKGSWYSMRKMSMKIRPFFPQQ
T1 sequence (looked up) 3: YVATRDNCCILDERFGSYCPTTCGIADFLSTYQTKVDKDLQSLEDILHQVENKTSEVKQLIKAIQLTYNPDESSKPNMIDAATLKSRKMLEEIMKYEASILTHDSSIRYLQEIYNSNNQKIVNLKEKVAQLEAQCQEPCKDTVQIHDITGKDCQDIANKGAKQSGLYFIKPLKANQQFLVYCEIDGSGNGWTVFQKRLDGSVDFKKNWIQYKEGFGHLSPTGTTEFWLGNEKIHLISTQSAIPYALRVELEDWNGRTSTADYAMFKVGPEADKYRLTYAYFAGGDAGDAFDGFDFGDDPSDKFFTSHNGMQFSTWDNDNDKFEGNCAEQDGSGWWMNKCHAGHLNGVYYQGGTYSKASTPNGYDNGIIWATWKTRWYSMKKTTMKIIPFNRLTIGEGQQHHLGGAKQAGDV
The assay can be described thus: dried fibrin plate, bound vs free peptide. The protocol:
(§1) A fibrinogen solution was prepared at 10 mg/ml (or at twice the concentration of fibrin desired) in TBS buffer (50 mM Tris, 150 mM NaCl, pH 7.4). The fibrinogen solution typically contained ˜17 mM citrate. Subsequently, a solution was prepared containing 2 U/ml thrombin, 20 mM CaCl₂, and 5 mM ε-aminocaproic acid in TBS. The fibrinogen solution and thrombin solution were mixed 1:1 in the wells of a 96-well plate, aliquoting 50 μL of each solution in each well (total volume=100 μL). The plates were evaporated to dryness overnight at 37° C. The polypeptide to be tested, dissolved in water, was added to each well at concentrations between 1-200 μM. […] The plate containing the peptide and (rehydrated) dried fibrin was covered and incubated at 37° C. on a shaker table for 2 hours.
(§2) The supernatant in each well was removed by pipette and the concentration of the polypeptide was measured by mass spectrometry. The ion current detected at the mass of the peptide was monitored after injection of a sample into the mass spectrometer. The area-under-the-peak was quantitated and compared to standards of known concentration. The concentration of peptide in the supernatant is equal to the concentration of free peptide. The concentration of bound peptide was determined by subtracting the concentration of free peptide from the total (starting) concentration. A plot of [Bound Peptide] vs. [Free Peptide] was used to determine the Kd and the concentration of bound peptide at saturation. The curve was fit to the equation: [Bound]=N×[Free]/(Kd+[Free]) where [Bound] is the concentration of bound polypeptide, [Free] is the concentration of free polypeptide, Kd is the dissociation constant (equal to the reciprocal of Kₐ) and N is the concentration of binding sites. The number of binding sites per fibrin molecule was equal to the lo concentration of binding sites determined by the [Bound Polypeptide] vs. [Free Polypeptide] plot, divided by the concentration of fibrin (15 μM) used in the assay.

Assay [4] addresses DD(E) soluble fibrin-derived polypeptide (UniProt P02671). The assay can be described thus: Kd against DD(E) target, 'as described above'.
The target in assay [5] is T1, dried fibrin. The assay can be described thus: dried fibrin plate, bound vs free peptide. This is another data set of the same source.
The target in assay [6] is T1, dried fibrin. As to the kind of experiment: dried fibrin plate, free peptide by mass spectrometry, bound vs free fit. On the procedure:
as §1, §2

B1: synthetic polypeptide … (peptide)
peptide: WFHCPYDLCHIL
modifications: disulfide 4-9 (inferred)
Turning to B1, the Kd in assay [1] and in assay [2] was 2.63 µM throughout.

B2: synthetic polypeptide … (peptide)
peptide: QWECPYGLCWIQ
modifications: disulfide 4-9 (inferred)
Consider B2, for which the Kd in assay [1] and in assay [2] was 2.96 µM each time.

B3: alanine scan peptide LACDYYGTCLD (peptide)
peptide: H-LACDYYGTCLD-NH2
modifications: disulfide 3-9
SMILES: CC(C)C[C@H](NC(=O)[C@@H]1CSSC[C@H](NC(=O)[C@H](C)NC(=O)[C@@H](N)CC(C)C)C(=O)N[C@@H](CC(=O)O)C(=O)N[C@@H](Cc2ccc(O)cc2)C(=O)N[C@@H](Cc2ccc(O)cc2)C(=O)NCC(=O)N[C@@H]([C@@H](C)O)C(=O)N1)C(=O)N[C@@H](CC(=O)O)C(N)=O
Consider B3, for which, in the assay with dried fibrin [3], the equilibrium dissociation constant (Kd) (as a rule, the constant that tells how readily two partners part at equilibrium) came to 31 µM. In other words, the double-digit micromolar range.

B4: alanine scan peptide LPCDYYATCLD (peptide)
peptide: LPCDYYATCLD
modifications: C-terminal amide; N-terminus free
With B4, in the assay with dried fibrin [3], the Kd was 41 µM.

B5: alanine scan peptide LPCDAYGTCLD (peptide)
peptide: H-LPCDAYGTCLD-NH2
modifications: disulfide 3-9
SMILES: CC(C)C[C@H](NC(=O)[C@@H]1CSSC[C@H](NC(=O)[C@@H]2CCCN2C(=O)[C@@H](N)CC(C)C)C(=O)N[C@@H](CC(=O)O)C(=O)N[C@@H](C)C(=O)N[C@@H](Cc2ccc(O)cc2)C(=O)NCC(=O)N[C@@H]([C@@H](C)O)C(=O)N1)C(=O)N[C@@H](CC(=O)O)C(N)=O
For B5, binding with dried fibrin [3] was put at a Kd of 16 µM. Compared with the last molecule, the Kd is about 2.6-fold lower.

B6: alanine scan peptide LPCDYYGTCAD (peptide)
peptide: H-LPCDYYGTCAD-NH2
modifications: disulfide 3-9
SMILES: CC(C)C[C@H](N)C(=O)N1CCC[C@H]1C(=O)N[C@H]1CSSC[C@@H](C(=O)N[C@@H](C)C(=O)N[C@@H](CC(=O)O)C(N)=O)NC(=O)[C@H]([C@@H](C)O)NC(=O)CNC(=O)[C@H](Cc2ccc(O)cc2)NC(=O)[C@H](Cc2ccc(O)cc2)NC(=O)[C@H](CC(=O)O)NC1=O
With B6, the equilibrium dissociation constant (Kd) with dried fibrin [3] stood at 32 µM.

B7: TN6-6 phage isolate … (peptide, not shown: large carriers)
peptide: QWECPYGLCWIQ
In the case of B7, the Kd in assay [4] amounted to 0.74 µM. This counts as sub-micromolar.

B8: Gd-DTPA-Gly[SEQ ID NO: 22] (peptide)
peptide: GQWECPYGLCWIQ
modifications: disulfide 5-10; not fully specified (N-terminus); also: Gd(III) chelate of DTPA
On to B8, for which the values for the Kd (in assay [1]; with dried fibrin [5]) were 3.1 µM and 3.6 µM, respectively.

B9: synthetic polypeptide RPCNYYGTCLH (peptide)
peptide: H-RPCNYYGTCLH-NH2
modifications: disulfide 3-9
SMILES: CC(C)C[C@H](NC(=O)[C@@H]1CSSC[C@H](NC(=O)[C@@H]2CCCN2C(=O)[C@@H](N)CCCNC(=N)N)C(=O)N[C@@H](CC(N)=O)C(=O)N[C@@H](Cc2ccc(O)cc2)C(=O)N[C@@H](Cc2ccc(O)cc2)C(=O)NCC(=O)N[C@@H]([C@@H](C)O)C(=O)N1)C(=O)N[C@@H](Cc1c[nH]cn1)C(N)=O
notes: Solid-phase synthesis; disulfide loop between the cysteines
Regarding B9, in the assay with dried fibrin [6], the Kd amounted to 8.5 µM.

B10: synthetic polypeptide RPCDYYGTCFD (peptide)
peptide: H-RPCDYYGTCFD-NH2
modifications: disulfide 3-9
SMILES: C[C@@H](O)[C@@H]1NC(=O)CNC(=O)[C@H](Cc2ccc(O)cc2)NC(=O)[C@H](Cc2ccc(O)cc2)NC(=O)[C@H](CC(=O)O)NC(=O)[C@@H](NC(=O)[C@@H]2CCCN2C(=O)[C@@H](N)CCCNC(=N)N)CSSC[C@@H](C(=O)N[C@@H](Cc2ccccc2)C(=O)N[C@@H](CC(=O)O)C(N)=O)NC1=O
notes: as for B9
Take B10: in the assay with dried fibrin [6], the Kd stood at 6.8 µM.

B11: synthetic polypeptide LPCSYYGTCLH (peptide)
peptide: H-LPCSYYGTCLH-NH2
modifications: disulfide 3-9
SMILES: CC(C)C[C@H](NC(=O)[C@@H]1CSSC[C@H](NC(=O)[C@@H]2CCCN2C(=O)[C@@H](N)CC(C)C)C(=O)N[C@@H](CO)C(=O)N[C@@H](Cc2ccc(O)cc2)C(=O)N[C@@H](Cc2ccc(O)cc2)C(=O)NCC(=O)N[C@@H]([C@@H](C)O)C(=O)N1)C(=O)N[C@@H](Cc1c[nH]cn1)C(N)=O
notes: as for B9
In the case of B11, the affinity with dried fibrin [6], expressed as Kd, was 13 µM.

B12: TN6-6 phage isolate … (peptide, not shown: large carriers)
peptide: WFHCPYDLCHIL
B12: the Kd in assay [4] worked out at 1.4 µM.
